Tests used:
Conditions in all cases: both partners purified
Nic96_(186–839) = biological target: T1, Nic96_(186–839) (Saccharomyces cerevisiae S288c, UniProt P34077); experiment: BLI; biotinylated, C-terminally Avi-tagged nanobody immobilised on streptavidin tips, nup as analyte in twofold dilution series; 10 mM Tris/HCl pH 7.5, 150 mM NaCl, 1 mM DTT, 0.1 mM EDTA, 0.05% Tween-20, 0.1% BSA; global 1:1 kinetic fit
T1 construct: The only Nic96 construct in the methods; source: E. coli LOBSTR-RIL(DE3), purified (Ni Sepharose, 3C protease, Superdex S200)

[1] = biological target: T2, Sec13 (analyte of the BLI of Table 1) (Saccharomyces cerevisiae S288c, UniProt Q04491); experiment: as above
T2 construct: Sec13, S. cerevisiae; The analyte may have been Sec13 fused to the Nup145C insertion blade; source: E. coli, recombinant

[2] = biological target: T3, fusion construct of Nup145C-Sec13 (Saccharomyces cerevisiae S288c, UniProt P49687;Q04491); experiment: SEC; nup and nanobody incubated 30 min on ice, then Superdex S75 or S200 10/300 in 150 mM NaCl, 10 mM Tris/HCl pH 7.5, 1 mM DTT, 0.1 mM EDTA
T3 construct: Nup145C, the C-terminal product of Nup145, S. cerevisiae; named among the 'full-length nups'; Sec13, S. cerevisiae; source: E. coli

[3] = biological target: T4, Nup120-Nup85-Seh1-Nup145C-Sec13 (Saccharomyces cerevisiae S288c, UniProt P35729;P46673;P53011;P49687;Q04491); experiment: as above
T4 construct: Nup120, S. cerevisiae; Nup85, S. cerevisiae; Seh1, S. cerevisiae; Nup145C, the C-terminal product of Nup145, S. cerevisiae, residues 34-712; Sec13, S. cerevisiae; Nup145C and Sec13 may stand on one chain as in the fusion construct; also called assembled Y complex hub; source: E. coli, purified; assembled from Nup85-Seh1 and Nup120-Nup145C_(34–712)-Sec13 on Superdex S200; copies: + + + +

[4] = biological target: T5, Nup120 (analyte of the BLI of Table 1) (Saccharomyces cerevisiae S288c, UniProt P35729); experiment: BLI; biotinylated, C-terminally Avi-tagged nanobody immobilised on streptavidin tips, nup as analyte in twofold dilution series; 10 mM Tris/HCl pH 7.5, 150 mM NaCl, 1 mM DTT, 0.1 mM EDTA, 0.05% Tween-20, 0.1% BSA; global 1:1 kinetic fit
T5 construct: Nup120, S. cerevisiae; source: E. coli, recombinant

[5] = biological target: T6, Nup133 (analyte of the BLI of Table 1) (Saccharomyces cerevisiae (strain ATCC …, UniProt P36161)); experiment: as above
T6 construct: Nup133, S. cerevisiae; source: E. coli, recombinant

Nup84 = biological target: T7, Nup84 (S. cerevisiae, UniProt P52891); experiment: as above
T7 construct: Nup84, S. cerevisiae; limits not given; source: E. coli LOBSTR-RIL(DE3), purified (Ni Sepharose, 3C protease, HiTrap SP FF flow-through, Superdex S200)

[6] = biological target: T8, Nup85 (analyte of the BLI of Table 1) (Saccharomyces cerevisiae S288c, UniProt P46673); experiment: as above
T8 construct: Nup85, S. cerevisiae; the analyte may have been a complex with Seh1; source: E. coli, recombinant

Nup85_(1–564) = biological target: T9, Nup85_(1–564) (S. cerevisiae, UniProt P46673 1-564); experiment: crystal structure; nup-nanobody complexes crystallised at 18 °C; solved by molecular replacement
T9 construct: Nup85, S. cerevisiae, residues 1-564 (crown and trunk modules); The Nup85 chain of m31, written alone for the pairs that touch in the structure 6X08; also called Nup85_(trunk-crown); Nup85_(crown-trunk); source: E. coli LOBSTR-RIL(DE3), purified together with Seh1
T9 sequence (looked up): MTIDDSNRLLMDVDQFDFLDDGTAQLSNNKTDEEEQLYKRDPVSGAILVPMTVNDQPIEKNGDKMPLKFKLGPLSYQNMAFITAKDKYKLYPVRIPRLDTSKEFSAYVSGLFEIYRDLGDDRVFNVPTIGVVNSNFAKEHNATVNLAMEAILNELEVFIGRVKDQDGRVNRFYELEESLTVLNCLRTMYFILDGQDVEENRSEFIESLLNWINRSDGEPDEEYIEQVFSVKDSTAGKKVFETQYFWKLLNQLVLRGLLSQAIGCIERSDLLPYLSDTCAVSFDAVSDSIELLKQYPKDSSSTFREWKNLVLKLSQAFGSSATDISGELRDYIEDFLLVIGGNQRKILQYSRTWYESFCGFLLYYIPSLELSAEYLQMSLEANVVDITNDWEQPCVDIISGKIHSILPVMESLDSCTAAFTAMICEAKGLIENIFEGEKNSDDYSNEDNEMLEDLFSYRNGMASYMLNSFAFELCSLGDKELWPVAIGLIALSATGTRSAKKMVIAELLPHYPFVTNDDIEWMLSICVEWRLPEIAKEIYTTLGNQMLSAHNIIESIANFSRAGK

[7] = biological target: T10, Sec13 fused to the Nup145C insertion blade (Saccharomyces cerevisiae S288c, UniProt Q04491); experiment: SEC; nup and nanobody incubated 30 min on ice, then Superdex S75 or S200 10/300 in 150 mM NaCl, 10 mM Tris/HCl pH 7.5, 1 mM DTT, 0.1 mM EDTA
T10 construct: Sec13, S. cerevisiae; Nup145C insertion blade, S. cerevisiae, residues 320-411 as printed; also called Sec13-Nup145C_(320–411); Sec13-Nup145C_(blade); source: E. coli LOBSTR-RIL(DE3), purified (Ni Sepharose, 3C protease, Superdex S75)

T5 sequence (P35729 whole entry): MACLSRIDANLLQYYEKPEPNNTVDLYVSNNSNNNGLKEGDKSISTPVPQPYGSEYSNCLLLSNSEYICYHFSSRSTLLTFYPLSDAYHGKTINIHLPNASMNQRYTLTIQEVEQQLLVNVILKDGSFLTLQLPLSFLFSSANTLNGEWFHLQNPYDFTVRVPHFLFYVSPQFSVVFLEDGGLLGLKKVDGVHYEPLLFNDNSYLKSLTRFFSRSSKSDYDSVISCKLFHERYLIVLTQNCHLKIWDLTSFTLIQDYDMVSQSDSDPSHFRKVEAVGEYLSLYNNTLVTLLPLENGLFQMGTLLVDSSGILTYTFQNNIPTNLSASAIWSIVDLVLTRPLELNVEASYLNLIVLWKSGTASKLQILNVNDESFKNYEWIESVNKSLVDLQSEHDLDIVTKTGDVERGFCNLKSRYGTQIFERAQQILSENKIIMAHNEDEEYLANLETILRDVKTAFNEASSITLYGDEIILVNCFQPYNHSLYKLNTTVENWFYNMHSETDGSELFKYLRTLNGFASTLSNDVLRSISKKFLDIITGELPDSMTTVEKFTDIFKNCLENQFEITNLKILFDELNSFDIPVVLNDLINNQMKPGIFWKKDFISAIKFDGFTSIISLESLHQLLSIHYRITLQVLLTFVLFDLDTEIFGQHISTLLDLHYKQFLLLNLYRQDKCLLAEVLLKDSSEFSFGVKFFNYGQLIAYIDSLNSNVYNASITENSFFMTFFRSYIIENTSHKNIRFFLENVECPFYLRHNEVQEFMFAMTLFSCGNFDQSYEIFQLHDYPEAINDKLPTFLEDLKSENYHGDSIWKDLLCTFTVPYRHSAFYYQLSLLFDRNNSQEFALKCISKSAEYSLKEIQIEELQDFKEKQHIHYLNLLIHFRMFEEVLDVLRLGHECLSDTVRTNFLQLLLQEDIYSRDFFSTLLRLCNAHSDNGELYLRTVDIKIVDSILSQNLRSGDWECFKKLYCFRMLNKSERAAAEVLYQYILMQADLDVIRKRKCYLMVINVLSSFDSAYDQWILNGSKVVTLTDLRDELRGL
T2 sequence (Q04491 whole entry, the tested form may be a part): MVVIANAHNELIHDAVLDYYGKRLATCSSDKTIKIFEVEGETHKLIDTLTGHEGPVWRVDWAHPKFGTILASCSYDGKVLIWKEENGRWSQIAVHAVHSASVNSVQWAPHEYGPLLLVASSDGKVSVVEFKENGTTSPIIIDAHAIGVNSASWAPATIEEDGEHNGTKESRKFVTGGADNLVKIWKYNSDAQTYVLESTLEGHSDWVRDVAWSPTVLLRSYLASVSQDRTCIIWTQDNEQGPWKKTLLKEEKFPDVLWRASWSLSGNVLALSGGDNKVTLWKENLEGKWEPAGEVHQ
T6 sequence (P36161 whole entry): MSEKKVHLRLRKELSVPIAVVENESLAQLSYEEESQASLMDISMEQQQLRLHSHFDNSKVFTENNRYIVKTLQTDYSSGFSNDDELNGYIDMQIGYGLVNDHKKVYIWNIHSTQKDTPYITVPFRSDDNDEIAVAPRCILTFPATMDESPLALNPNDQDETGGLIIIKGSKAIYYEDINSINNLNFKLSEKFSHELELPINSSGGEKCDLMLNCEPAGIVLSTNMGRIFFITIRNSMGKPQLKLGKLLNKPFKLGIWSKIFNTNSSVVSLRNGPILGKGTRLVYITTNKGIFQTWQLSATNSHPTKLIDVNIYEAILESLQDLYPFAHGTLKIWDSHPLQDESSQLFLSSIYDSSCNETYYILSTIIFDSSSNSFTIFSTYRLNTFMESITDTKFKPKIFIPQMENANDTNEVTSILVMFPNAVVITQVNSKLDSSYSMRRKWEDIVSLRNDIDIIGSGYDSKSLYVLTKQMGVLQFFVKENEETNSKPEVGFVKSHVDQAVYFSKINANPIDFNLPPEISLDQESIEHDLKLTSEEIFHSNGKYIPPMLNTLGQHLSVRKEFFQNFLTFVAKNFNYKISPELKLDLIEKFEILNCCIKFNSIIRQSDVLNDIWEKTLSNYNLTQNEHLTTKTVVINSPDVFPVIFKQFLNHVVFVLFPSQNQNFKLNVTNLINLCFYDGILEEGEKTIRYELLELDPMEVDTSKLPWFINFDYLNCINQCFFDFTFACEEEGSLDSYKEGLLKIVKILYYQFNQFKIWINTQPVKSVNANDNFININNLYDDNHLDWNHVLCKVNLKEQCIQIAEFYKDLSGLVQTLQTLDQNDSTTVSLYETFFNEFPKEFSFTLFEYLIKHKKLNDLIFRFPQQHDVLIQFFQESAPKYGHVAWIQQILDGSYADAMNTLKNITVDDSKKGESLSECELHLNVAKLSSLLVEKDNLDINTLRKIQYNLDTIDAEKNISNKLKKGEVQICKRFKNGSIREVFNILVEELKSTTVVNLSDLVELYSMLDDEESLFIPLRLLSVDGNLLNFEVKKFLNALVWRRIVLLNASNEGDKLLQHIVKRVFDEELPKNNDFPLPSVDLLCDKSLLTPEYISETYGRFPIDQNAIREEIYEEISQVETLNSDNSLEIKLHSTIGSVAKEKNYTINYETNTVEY
T7 sequence (P52891 whole entry): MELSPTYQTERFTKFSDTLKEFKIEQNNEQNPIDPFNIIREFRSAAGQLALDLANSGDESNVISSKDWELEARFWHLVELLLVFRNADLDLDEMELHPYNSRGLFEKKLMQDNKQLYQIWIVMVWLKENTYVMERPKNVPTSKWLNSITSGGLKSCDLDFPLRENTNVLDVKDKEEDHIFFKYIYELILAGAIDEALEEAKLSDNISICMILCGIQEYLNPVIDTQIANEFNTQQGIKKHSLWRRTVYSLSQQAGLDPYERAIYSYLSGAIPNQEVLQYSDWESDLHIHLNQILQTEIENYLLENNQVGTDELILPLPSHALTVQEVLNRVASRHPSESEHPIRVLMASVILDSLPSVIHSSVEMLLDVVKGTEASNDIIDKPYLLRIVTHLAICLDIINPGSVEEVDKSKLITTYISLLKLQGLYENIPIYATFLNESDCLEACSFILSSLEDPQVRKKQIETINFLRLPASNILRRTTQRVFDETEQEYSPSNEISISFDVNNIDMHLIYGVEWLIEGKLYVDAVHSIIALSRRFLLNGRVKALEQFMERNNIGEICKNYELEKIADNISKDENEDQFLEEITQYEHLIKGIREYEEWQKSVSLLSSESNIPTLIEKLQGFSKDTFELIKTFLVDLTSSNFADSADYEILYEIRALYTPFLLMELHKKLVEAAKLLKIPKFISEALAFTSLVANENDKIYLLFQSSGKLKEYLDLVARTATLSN

B1: VHH-SAN12 with biotinylated C-terminal Avi-tag (VHH)
VHH: QVQLVETGGGLVQAGGSLRLSCATSGFNFRLRTMGWYRQAPGKERELVASITSGGSTDYADSVKGRFTISRDNAKNTISLEMNSLKPDDTAVYYCNIWAPTTAAITNWGQGTQVTVSS
notes: also in PDB 6X07; Separate Avi-tagged construct used for BLI; source: E. coli LOBSTR-RIL(DE3), biotin added to the culture, purified (Ni Sepharose, SEN-p protease, Superdex S75); not shown: 14xHis, N-terminal, cleaved; bdSUMO, N-terminal, cleaved; Avi-tag, C-terminal, kept
- Kd (Nic96_(186–839)): 1300 pM
- koff (Nic96_(186–839)): 0.0024 s⁻¹
- kon (Nic96_(186–839)): 1.8e+06 M⁻¹ s⁻¹

B2: VHH-SAN7 with biotinylated C-terminal Avi-tag (VHH)
VHH: QVQLVETGGGLVQPGGSLRLSCVASGSIFGINAMGWYRQAPGNQRELVASIRSDFGTTKYADSVKGRFTISRGNARTTVYLQMNSLKPEDTAVYYCRIWSADGNYWGQGTQVTVSS
notes: Separate Avi-tagged construct used for BLI; source: E. coli LOBSTR-RIL(DE3), biotin added to the culture, purified (Ni Sepharose, SEN-p protease, Superdex S75); not shown: 14xHis, N-terminal, cleaved; bdSUMO, N-terminal, cleaved; Avi-tag, C-terminal, kept
- Kd [1]: 510 pM
- koff [1]: 0.00065 s⁻¹
- kon [1]: 1.3e+06 M⁻¹ s⁻¹

B3: VHH-SAN7 (VHH)
VHH: B2 VHH
notes: source: E. coli LOBSTR-RIL(DE3), purified (Ni Sepharose, SEN-p protease, Superdex S75); not shown: 14xHis, N-terminal, cleaved; bdSUMO, N-terminal, cleaved
- binding result [2]: binds
- binding result [3]: binds

B4: VHH-SAN11 with biotinylated C-terminal Avi-tag (VHH)
VHH: QVQLVETGGGLVRAGGSLRLSCVDSGRTFRVYTMGWFRQAPGKEREFVAAIRWSGDRTYYGDPVQGRFTISRDKGKNTVYLQMNSLKPEDTAVYYCAAPAGGGVVYDDHKAYAYWGQGTQVTVS
notes: also in PDB 6X06; Separate Avi-tagged construct used for BLI; source: E. coli LOBSTR-RIL(DE3), biotin added to the culture, purified (Ni Sepharose, SEN-p protease, Superdex S75); not shown: 14xHis, N-terminal, cleaved; bdSUMO, N-terminal, cleaved; Avi-tag, C-terminal, kept
- Kd [4]: 790 pM
- koff [4]: 0.00078 s⁻¹
- kon [4]: 980000 M⁻¹ s⁻¹

B5: VHH-SAN5 with biotinylated C-terminal Avi-tag (VHH)
VHH: QVQLVESGGGLVQAGGSLRLSCAASGSIGSLDAMAWYRRAPGKQRERVASISRYGTYYVDSVKGRFTISRDNAKNTVYLQMNSLKPEDTGVYYCKGVMEVGGVIDEYWGQGTQVTVSS
notes: as for B2
- Kd [5]: 10000 pM
- koff [5]: 0.0028 s⁻¹
- kon [5]: 280000 M⁻¹ s⁻¹

B6: VHH-SAN10 with biotinylated C-terminal Avi-tag (VHH)
VHH: QVQLVETGGGLVQAGGSLRLSCVVSGRTFSSYAMGWFRQAPGKEREFVSGINWSGGSAYYGDSVKGRFTISRDNAKNTVYLQMNSLKPEDTAVYYCVADRAWRGTTWRADSSYDYWGQGTQVTVSS
notes: deposited with PDB 6X06, but no density for VHH-SAN10 in the map; Separate Avi-tagged construct used for BLI; source: E. coli LOBSTR-RIL(DE3), biotin added to the culture, purified (Ni Sepharose, SEN-p protease, Superdex S75); not shown: 14xHis, N-terminal, cleaved; bdSUMO, N-terminal, cleaved; Avi-tag, C-terminal, kept
- Kd [4]: 380 pM
- koff [4]: 0.00017 s⁻¹
- kon [4]: 450000 M⁻¹ s⁻¹

B7: VHH-SAN4 with biotinylated C-terminal Avi-tag (VHH)
VHH: QLQLVESGGGSVQAGGSLTLSCTASESISKRIHGIGWFRQRRGEQREEIAYITTGGRPNLGDSVKDRFTISRDKSNGTVYLQMNSLKPEDTAVYYCHGRGRWWGTEGRLDYWGQGTQVTVSS
notes: as for B2
- Kd [5]: 230000 pM
- koff [5]: 0.22 s⁻¹
- kon [5]: 950000 M⁻¹ s⁻¹

B8: VHH-SAN9 with biotinylated C-terminal Avi-tag (VHH)
VHH: QVQLVESGGGSVQAGGSLRLSCAVSGGTLSTLAMGWFRQAPGQEREFVARIGWTNGDTGYADSVKGRFTISRDNVKNTVYLQMNNLKPEDTALYYCATRRPYGSTLYPPNTESAHDNWGQGTQVTVSS
notes: as for B2
- Kd (Nup84): 170 pM
- koff (Nup84): 7.7e-05 s⁻¹
- kon (Nup84): 440000 M⁻¹ s⁻¹

B9: VHH-SAN3 with biotinylated C-terminal Avi-tag (VHH)
VHH: QVQLVESGGGLVQAGGSLRLSCFASGGTFSRYDMGWFRQAPGKEREFVARITRGGRVADYAAFVEGRFTISRDNAKNTVYLQMNSLKPEDTGIYFCAGKDAGVFDFYLWGQGTQVTVSS
notes: as for B2
- Kd [6]: 14 pM
- koff [6]: 8.1e-06 s⁻¹
- kon [6]: 580000 M⁻¹ s⁻¹

B10: VHH-SAN1 with biotinylated C-terminal Avi-tag (VHH)
VHH: QVQLVETGGGLVPPGGSLKLSCAVSGDILRVQTMGWYRQAPGKQRELVAAFTGGGRTNYADSMKGRFTISRDNAKNTVFLQMNSLKPEDTAVYYCRADIAAVRPWPLQEYWGQGTQVTVSS
notes: as for B2
- Kd [6]: 580 pM
- koff [6]: 0.0014 s⁻¹
- kon [6]: 2.3e+06 M⁻¹ s⁻¹

B11: VHH-SAN8 with biotinylated C-terminal Avi-tag (VHH)
VHH: QLQLVETGGGLVQAGGSLRLSCVASGRTFTSYAMGWFRQAPGKEREFVAAISRLASGTDYADSVKGRFTISRNNDKNTVYLQMNNLIPEDTAVYYCAALQALRFSLPIAMATMKNGRADSWGQGTQVTVSS
notes: as for B2
- Kd (Nup84): 63 pM
- koff (Nup84): 2.2e-05 s⁻¹
- kon (Nup84): 350000 M⁻¹ s⁻¹

B12: Seh1 (natural protein, S. cerevisiae)
chain: MQPFDSGHDDLVHDVVYDFYGRHVATCSSDQHIKVFKLDKDTSNWELSDSWRAHDSSIVAIDWASPEYGRIIASASYDKTVKLWEEDPDQEECSGRRWNKLCTLNDSKGSLYSVKFAPAHLGLKLACLGNDGILRLYDALEPSDLRSWTLTSEMKVLSIPPANHLQSDFCLSWCPSRFSPEKLAVSALEQAIIYQRGKDGKLHVAAKLPGHKSLIRSISWAPSIGRWYQLIATGCKDGRIRIFKITEKLSPLASEESLTNSNMFDNSADVDMDAQGRSDSNTEEKAELQSNLQVELLSEHDDHNGEVWSVSWNLTGTILSSAGDDGKVRLWKATYSNEFKCMSVITAQQ
notes: Seh1, S. cerevisiae; Used alone in SEC with VHH-SAN1; also written alone for its contact with Nup85(1-564) in the structure 6X08; also called Seh1 alone; source: E. coli
- binding result (Nup85_(1–564)): binds

B13: VHH-SAN2 with biotinylated C-terminal Avi-tag (VHH)
VHH: QVQLVETGGGLVQPGGSLRLSCAASGFTLDDYAIGWFRQAPGKEREGVSCISRSGGSTTYTDSVKGRFTISRDNAENTVYLQMNSLKPEDTAVYYCAAARTRGTCWLNRIGMDYWGKGTQVTVSS
notes: also in PDB 6X08; Separate Avi-tagged construct used for BLI; source: E. coli LOBSTR-RIL(DE3), biotin added to the culture, purified (Ni Sepharose, SEN-p protease, Superdex S75); not shown: 14xHis, N-terminal, cleaved; bdSUMO, N-terminal, cleaved; Avi-tag, C-terminal, kept
- Kd [6]: 80 pM
- koff [6]: 8.1e-05 s⁻¹
- kon [6]: 1e+06 M⁻¹ s⁻¹

B14: VHH-SAN6 (VHH)
VHH: QLQLVETGGGSVQAGGSLSLSCIVSGRTSTYYAMGWFRQAPGKEREFVAAINWSGSSTVYEESVKGRFTISRDNVQNTVYLQMNSLKPEDTADYYCAAAATIFIPRPDEYPYWGQGTQVTVSS
notes: as for B3
- binding result [2]: binds
- binding result [7]: no binding

Source: PMC7710722, “A nanobody suite for yeast scaffold nucleoporins provides details of the nuclear pore complex structure” (Nature Communications, 2020)
